In assay [1] the target is T1, rhesus monkey (Macaca mulatta) CD30 (rhesus monkey, UniProt P28908 19-595 (human entry)).
T1 construct: also called mmCD30
T1 chain: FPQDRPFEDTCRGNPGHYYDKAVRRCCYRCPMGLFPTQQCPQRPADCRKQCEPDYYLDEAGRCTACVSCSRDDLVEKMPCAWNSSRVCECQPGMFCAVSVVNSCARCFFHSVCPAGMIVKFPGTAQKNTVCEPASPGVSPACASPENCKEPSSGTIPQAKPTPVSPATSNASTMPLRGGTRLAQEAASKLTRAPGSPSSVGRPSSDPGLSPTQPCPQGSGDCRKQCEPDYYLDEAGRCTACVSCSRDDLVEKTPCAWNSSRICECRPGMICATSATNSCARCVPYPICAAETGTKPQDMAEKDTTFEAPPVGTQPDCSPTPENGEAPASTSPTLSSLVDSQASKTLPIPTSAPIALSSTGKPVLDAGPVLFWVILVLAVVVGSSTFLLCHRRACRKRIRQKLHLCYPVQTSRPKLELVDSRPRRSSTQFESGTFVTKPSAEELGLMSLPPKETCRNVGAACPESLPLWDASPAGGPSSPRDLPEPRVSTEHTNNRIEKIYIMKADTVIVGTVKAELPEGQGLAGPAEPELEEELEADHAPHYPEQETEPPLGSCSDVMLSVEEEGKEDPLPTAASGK
As to the kind of experiment: flow cytometry, Expi293F cells transfected with rhesus monkey CD30.

Assay [2] concerns the target T2, human CD30 (human, UniProt P28908 19-595).
T2 construct: also called huCD30; TNFRSF8
T2 sequence: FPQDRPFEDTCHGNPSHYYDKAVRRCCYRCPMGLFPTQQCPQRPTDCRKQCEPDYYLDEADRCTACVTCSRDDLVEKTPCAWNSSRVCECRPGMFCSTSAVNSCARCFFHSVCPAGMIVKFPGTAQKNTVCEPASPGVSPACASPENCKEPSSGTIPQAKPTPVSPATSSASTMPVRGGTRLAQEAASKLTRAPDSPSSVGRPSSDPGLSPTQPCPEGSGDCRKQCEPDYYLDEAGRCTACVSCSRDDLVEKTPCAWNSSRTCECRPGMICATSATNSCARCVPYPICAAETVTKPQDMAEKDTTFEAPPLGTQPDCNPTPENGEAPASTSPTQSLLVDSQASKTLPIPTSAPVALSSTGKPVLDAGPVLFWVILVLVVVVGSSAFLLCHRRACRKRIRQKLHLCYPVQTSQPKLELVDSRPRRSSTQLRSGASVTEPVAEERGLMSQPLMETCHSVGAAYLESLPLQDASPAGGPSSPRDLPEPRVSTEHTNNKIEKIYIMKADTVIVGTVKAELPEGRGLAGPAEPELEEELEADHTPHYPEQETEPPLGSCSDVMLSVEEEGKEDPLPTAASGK
The assay is described as follows: flow cytometry, SU-DHL-1 cells. A digest of the protocol: (§1)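 CD3×CD30 bispecific antibodies, 3-fold serial dilutions from 0.0046 to 10 μg/mL, incubated with 3×10⁴ SU-DHL-1 (ALCL) or HDLM-2 (HL) cells for 30 min at 4 °C, then secondary antibody 30 min at 4 °C. Live cells gated by FSC/SSC and TO-PRO-3 exclusion; binding curves fitted by four-parameter sigmoidal regression.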

Assay [3] deals with T2, human CD30. As to the kind of experiment: flow cytometry, HDLM-2 cells. In outline:
as §1

The target in assay [4] is T2, human CD30. The assay is described as follows: flow cytometry, Expi293F cells transfected with human CD30. How it is done:
Cells (3×10⁴ cells/well) were incubated in polystyrene 96-well round-bottom plates (Greiner bio-one, cat. no. 650180) with serial dilutions of antibodies (ranging from 0.005 to 10 μg/mL in 3-fold dilution steps) in 100 μL staining buffer at 4° C. for 30 min. Experiments were performed in technical duplicate. After washing twice in staining buffer, cells were incubated in 50 μL secondary antibody at 4° C. for 30 min. As a secondary antibody, R-PE-conjugated goat-anti-human IgG (Jackson ImmunoResearch, UK; cat. no. 109⁻¹¹⁶-098) diluted 1:400 in staining buffer was used. Cells were washed twice in staining buffer, resuspended in 30 μL staining buffer containing 0.4% EDTA and analyzed on an iQue Screener (Intellicyt Corporation, USA). Binding curves were analyzed using non-linear regression (sigmoidal dose-response with variable slope) using GraphPad Prism V9.0.0 software (GraphPad Software, San Diego, CA, USA).

Assay [5] concerns the target T3, cynomolgus monkey (Macaca fascicularis) CD30 (cynomolgus monkey, UniProt P28908 19-595 (human entry)).
T3 construct: also called mfCD30
T3 chain: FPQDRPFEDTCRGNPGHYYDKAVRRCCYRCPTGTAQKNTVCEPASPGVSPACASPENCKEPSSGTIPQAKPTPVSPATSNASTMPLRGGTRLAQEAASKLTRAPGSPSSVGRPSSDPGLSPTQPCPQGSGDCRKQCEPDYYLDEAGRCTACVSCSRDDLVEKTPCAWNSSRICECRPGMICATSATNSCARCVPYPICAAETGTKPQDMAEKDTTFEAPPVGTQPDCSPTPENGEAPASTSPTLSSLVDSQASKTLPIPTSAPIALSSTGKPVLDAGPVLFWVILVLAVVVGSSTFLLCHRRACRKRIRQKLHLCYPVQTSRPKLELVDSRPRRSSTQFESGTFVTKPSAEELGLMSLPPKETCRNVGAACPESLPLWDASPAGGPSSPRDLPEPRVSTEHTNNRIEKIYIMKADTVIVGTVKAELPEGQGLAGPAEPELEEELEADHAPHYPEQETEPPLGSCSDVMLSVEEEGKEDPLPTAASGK
The assay is described as follows: flow cytometry, HEK293 cells transfected with mfCD30. How it is done:
Cells (3×10⁴ cells/well) were incubated in polystyrene 96-well round-bottom plates (Thermo Scientific, cat. no. 163320) with serial dilutions of antibodies (ranging from 0.0002 to 50 μg/mL in 4-fold dilution steps) in 50 μL staining buffer at 4° C. for 30 min. Experiments were performed in technical duplicate. After washing twice in staining buffer, cells were incubated in 50 μL secondary antibody at 4° C. for 30 min. As a secondary antibody, R-PE-conjugated goat-anti-human IgG (Jackson ImmunoResearch, UK; cat. no. 109⁻¹¹⁶-098) diluted 1:200 in staining buffer was used. Cells were washed twice in staining buffer, resuspended in 30 μL staining buffer containing 0.4% EDTA and the ToPro-3 viability marker (Invitrogen, cat. no. T3605) diluted 1:10,000. Cells were analyzed on an iQue Screener (Intellicyt Corporation, USA). Binding curves were analyzed using non-linear regression (sigmoidal dose-response with variable slope) using GraphPad Prism V9.0.0 software (GraphPad Software, San Diego, CA, USA).

The source of these data is US20260234255A1 (Genmab, published 2026).

B1: IgG1-CD30-T408-FEAR (antibody, V domains shown)
VH: QVQLQQPGAELVRPGASVKLSCKASGYTFTSYWINWVKQRPGQGLEWIGNIYPSDSYSNYNQKFKDKATLTVDKSSSTAYMQLSSPTSEDSAVYYCTLGSYWGQGTLVTVSA
VL: not shown
notes: Monospecific, bivalent parental antibody
On to B1, for which the “EC50 (read off the curve)” value in assay [1] is approximately 0.4 µg/mL; with human CD30 [2], approximately 0.6 µg/mL; in the assay with human CD30 [3], approximately 1 µg/mL; with human CD30 [4] it was approximately 0.2 µg/mL.

B2: bsG1-huCD3-FEALxb12-FERR (bispecific antibody, human IgG1, kappa, lambda)
heavy 1: not shown
light 1: not shown
heavy 2: QVQLVQSGAEVKKPGASVKVSCQASGYRFSNFVIHWVRQAPGQRFEWMGWINPYNGNKEFSAKFQDRVTFTADTSANTAYMELRSLRSADTAVYYCARVGPYSWDDSPQDNYYMDVWGKGTTVIVSSASTKGPSVFPLAPSSKSTSGGTAALGCLVKDYFPEPVTVSWNSGALTSGVHTFPAVLQSSGLYSLSSVVTVPSSSLGTQTYICNVNHKPSNTKVDKRVEPKSCDKTHTCPPCPAPEFERGPSVFLFPPKPKDTLMISRTPEVTCVVVDVSHEDPEVKFNWYVDGVEVHNAKTKPREEQYNSTYRVVSVLTVLHQDWLNGKEYKCKVSNKALPAPIEKTISKAKGQPREPQVYTLPPSREEMTKNQVSLTCLVKGFYPSDIAVEWESNGQPENNYKTTPPVLDSDGSFFLYSRLTVDKSRWQQGNVFSCSVMHEALHNHYTQKSLSLSPG
light 2: EIVLTQSPGTLSLSPGERATFSCRSSHSIRSRRVAWYQHKPGQAPRLVIHGVSNRASGISDRFSGSGSGTDFTLTITRVEPEDFALYYCQVYGASSYTFGQGTKLERKRTVAAPSVFIFPPSDEQLKSGTASVVCLLNNFYPREAKVQWKVDNALQSGNSQESVTEQDSKDSTYSLSSTLTLSKADYEKHKVYACEVTHQGLSSPVTKSFNRGEC
notes: Monovalent CD3 control antibody
Turning to B2, the binding result in assay [5] was “no binding (tested: 0.0002 to 50 µg/mL)”.
